US20130345145A1, “ATIP3 AND BIOLOGICALLY ACTIVE FRAGMENTS THEREOF FOR USE IN THE TREATMENT OF CANCER” (INSTITUT NATIONAL DE LA SANTE ET DE LA RECHERCHE MEDICALE …, priority 2011, published 2013)

Columns and labels:
[1] = tested on: human breast cancer MCF-7 cells; test: Clonogenicity experiments; format: cell-based; settings: for cell proliferation / number of G418-resistant colonies: MCF-7 transfected with GFP fusion, G418 selection 3 weeks, compared to GFP; for inhibitory effect on colony number relative to that of GFP-ATIP3: MCF7, FIG. 12
Protocol: For clonogenicity experiments, human breast cancer MCF-7 cells were transfected for 24 h with […] pEGFP-C1 vector or 2 μg of pEGFP-ATIP3BD cDNA. Similar transfection efficiency (50%) was assessed by FACS analysis and cell viability was verified using trypan blue. Cells were then plated at various dilutions in 12 well plates and transfectants were selected by adding geneticin (G418, 1 mg/ml, Gibco) in fresh medium twice a week for 3 weeks. Resistant colonies were stained with 0.5% crystal violet (Sigma) and counted.
The ability of human MCF7 breast cancer cells to form colonies following expression of minimal domains D2N and D2C was analyzed by clonogenicity experiments as described before (see example 2).

stabilized microtubules = test: Microtubule co-sedimentation assay; format: binding, human; settings: MCF-7 lysate, taxol 20 μM, data not shown
Protocol: (§1) The pEGFP-ATIP3BD plasmid was transiently transfected into human breast cancer MCF-7 cells. Localization of GFP-ATIP3BD fusion protein at the microtubule cytoskeleton was examined by immunofluorescence, and its ability to interact with stabilized microtubules was determined by co-sedimentation assay.
For microtubule cosedimentation assay, human breast cancer MCF-7 cells were transiently transfected (24 h) with pEGFP-ATIP3BD plasmid and incubated for 20 min at 4° C. in PEM buffer (100 mM PIPES, pH 6.9, 1 mM MgSO4, 1 mM EGTA), scraped and sonicated prior to centrifugation at 15000 rpm for 10 min, 4° C. Clarified samples were incubated with taxol (20 μM) in the presence of GTP (1 mM) and DTT (1 mM) for 45 min at 37° C. and were spun at 70 000 g for 30 min at 30° C. through a cushion buffer containing 40% glycerol, 20 μM taxol and 1 mM GTP. The supernatant (S) and pellet (P) fractions were collected separately and subsequently immunoblotted with anti-GFP (Roche) and anti-alpha-tubulin (Sigma) antibodies.

microtubule cytoskeleton [2] = test: Immunofluorescence localization in transfected MCF-7 cells; format: cell-based, human; settings: MCF-7 cells transiently transfected 24 h, data not shown
Protocol: as §1
Exponentially growing human breast cancer MCF-7 cells plated on coverslips were transiently transfected (24 h) with pEGFP-ATIP3BD plasmid, and fixed in ice-cold methanol for 5 min prior to incubation for 1 h at room temperature with primary antibodies: anti-GFP monoclonal antibodies (Roche, diluted 1:200) and human anti-alpha-tubulin antibodies clone F2C (diluted 1:10), as described in Rodrigues-Ferreira et al. (PLoS One. 2009; 4(10):e7239 2009). After extensive washing, cells were incubated for 30 min at room temperature with appropriate secondary Cy-2-conjugated anti-human and/or Cy-3-conjugated anti-mouse antibodies (Jackson Laboratories, Interchim, France) diluted 1:500. Coverslips were mounted on glass slides using Glycergel Mounting Medium (DakoCytomation) and examined with a Leica TCS SP2 AOBS confocal microscope using appropriate filters. Image analysis was performed with NIH ImageJ software.

microtubule cytoskeleton [3] = test: Immunofluorescence intracellular localization in RPE1 cells; format: cell-based, Human; settings: RPE1 cells transfected 24 hrs, data not shown
Protocol: Immunofluorescence study was performed as example 2. Briefly, Human retinal pigment epithelial (RPE1) cells were transfected for 24 hrs with GFP-D2N, GFP-D2C or GFP-D2CC constructs prior to fixation in ice-cold methanol and incubation with anti-GFP antibodies as described (page 21, lines 1-9).

| Molecule | cell proliferation / number of G418-resistant colonies [1] | co-sedimentation with stabilized microtubules (stabilized microtubules) | localization of GFP fusion protein at the microtubule cytoskeleton (microtubule cytoskeleton [2]) | intracellular localization (microtubule cytoskeleton [3]) | inhibitory effect on colony number relative to that of GFP-ATIP3 [1] |
| --- | --- | --- | --- | --- | --- |
| ATIP3a: microtubule-associated tumor suppressor 1 isoform 1, SEQ ID NO: 1 (protein, listed as Homo sapiens, (1)..(409) acidic N-terminal region) MTDDNSDDKIEDELQTFFTSDKDGNTHAYNPKSPPTQNSSASSVNWNSANPDDMVVDYETDPAVVTGENISLSLQGVEVFGHEKSSSDFISKQVLDMHKDSICQCPALVGTEKPKYLQHSCHSLEAVEGQSVEPSLPFVWKPNDNLNCAGYCDALELNQTFDMTVDKVNCTFISHHAIGKSQSFHTAGSLPPTGRRSGSTSSLSYSTWTSSHSDKTHARETTYDRESFENPQVTPSEAQDMTYTAFSDVVMQSEVFVSDIGNQCACSSGKVTSEYTDGSQQRLVGEKETQALTPVSDGMEVPNDSALQEFFCLSHDESNSEPHSQSSYRHKEMGQNLRETVSYCLIDDECPLMVPAFDKSEAQVLNPEHKVTETEDTQMVSKGKDLGTQNHTSELILSSPPGQKVGSSFGLTWDANDMVISTDKTMCMSTPVLEPTKVTFSVSPIEATEKCKKVEKGNRGLKNIPDSKEAPVNLCKPSLGKSTIKTNTPIGCKVRKTEIISYPRPNFKNVKAKVMSRAVLQPKDAALSKVTPRPQQTSASSPSSVNSRQQTVLSRTPRSDLNADKKAEILINKTHKQQFNKLITSQAVHVTTHSKNASHRVPRTTSAVKSNQEDVDKASSSNSACETGSVSALFQKIKGILPVKMESAECLEMTYVPNIDRISPEKKGEKENGTSMEKQELKQEIMNETFEYGSLFLGSASKTTTTSGRNISKPDSCGLRQIAAPKAKVGPPVSCLRRNSDNRNPSADRAVSPQRIRRVSSSGKPTSLKTAQSSWVNLPRPLPKSKASLKSPALRRTGSTPSIASTHSELSTYSNNSGNAAVIKYEEKPPKPAFQNGSSGSFYLKPLVSRAHVHLMKTPPKGPSRKNLFTALNAVEKSRQKNPRSLCIQPQTAPDALPPEKTLELTQYKTKCENQSGFILQLKQLLACGNTKFEALTVVIQHLLSEREEALKQHKTLSQELVNLRGELVTASTTCEKLEKARNELQTVYEAFVQQHQAEKTERENRLKEFYTREYEKLRDTYIEEAEKYKMQLQEQFDNLNAAHETSKLEIEASHSEKLELLKKAYEASLSEIKKGHEIEKKSLEDLLSEKQESLEKQINDLKSENDALNEKLKSEEQKRRAREKANLKNPQIMYLEQELESLKAVLEIKNEKLHQQDIKLMKMEKLVDNNTALVDKLKRFQQENEELKARMDKHMAISRQLSTEQAVLQESLEKESKVNKRLSMENEELLWKLHNGDLCSPKRSPTSSAIPLQSPRNSGSFPSPSISPR | inhibit cell proliferation and reduce cancer cell growth |  |  |  |  |
| ATIP3b: microtubule-associated tumor suppressor 1 isoform 2, SEQ ID NO: 6 (protein, listed as Homo sapiens, (1)..(409) acidic N-terminal region) MTDDNSDDKIEDELQTFFTSDKDGNTHAYNPKSPPTQNSSASSVNWNSANPDDMVVDYETDPAVVTGENISLSLQGVEVFGHEKSSSDFISKQVLDMHKDSICQCPALVGTEKPKYLQHSCHSLEAVEGQSVEPSLPFVWKPNDNLNCAGYCDALELNQTFDMTVDKVNCTFISHHAIGKSQSFHTAGSLPPTGRRSGSTSSLSYSTWTSSHSDKTHARETTYDRESFENPQVTPSEAQDMTYTAFSDVVMQSEVFVSDIGNQCACSSGKVTSEYTDGSQQRLVGEKETQALTPVSDGMEVPNDSALQEFFCLSHDESNSEPHSQSSYRHKEMGQNLRETVSYCLIDDECPLMVPAFDKSEAQVLNPEHKVTETEDTQMVSKGKDLGTQNHTSELILSSPPGQKVGSSFGLTWDANDMVISTDKTMCMSTPVLEPTKVTFSVSPIEATEKCKKVEKGNRGLKNIPDSKEAPVNLCKPSLGKSTIKTNTPIGCKVRKTEIISYPRPNFKNVKAKVMSRAVLQPKDAALSKVTPRPQQTSASSPSSVNSRQQTVLSRTPRSDLNADKKAEILINKTHKQQFNKLITSQAVHVTTHSKNASHRVPRTTSAVKSNQEDVDKASSSNSACETGSVSALFQKIKGILPVKMESAECLEMTYVPNIDRISPEKKGEKENGTSMEKQELKQEIMNETFEYGSLFLGSASKTTTTSGRNISKPDSCGLRQIAAPKAKVGPPVSCLRRNSDNRNPSADRAVSPQRIRRVSSSAGNAAVIKYEEKPPKPAFQNGSSGSFYLKPLVSRAHVHLMKTPPKGPSRKNLFTALNAVEKSRQKNPRSLCIQPQTAPDALPPEKTLELTQYKTKCENQSGFILQLKQLLACGNTKFEALTVVIQHLLSEREEALKQHKTLSQELVNLRGELVTASTTCEKLEKARNELQTVYEAFVQQHQAEKTERENRLKEFYTREYEKLRDTYIEEAEKYKMQLQEQFDNLNAAHETSKLEIEASHSEKLELLKKAYEASLSEIKKGHEIEKKSLEDLLSEKQESLEKQINDLKSENDALNEKLKSEEQKRRAREKANLKNPQIMYLEQELESLKAVLEIKNEKLHQQDIKLMKMEKLVDNNTALVDKLKRFQQENEELKARMDKHMAISRQLSTEQAVLQESLEKESKVNKRLSMENEELLWKLHNGDLCSPKRSPTSSAIPLQSPRNSGSFPSPSISPR | inhibit cell proliferation and reduce cancer cell growth |  |  |  |  |
| ATIP3BD: basic central domain of ATIP3, residues 410-874 of SEQ ID NO: 1, expressed as GFP fusion (protein, listed as Homo sapiens, GFP fusion; (1)..(409) acidic N-terminal region) GLTWDANDMVISTDKTMCMSTPVLEPTKVTFSVSPIEATEKCKKVEKGNRGLKNIPDSKEAPVNLCKPSLGKSTIKTNTPIGCKVRKTEIISYPRPNFKNVKAKVMSRAVLQPKDAALSKVTPRPQQTSASSPSSVNSRQQTVLSRTPRSDLNADKKAEILINKTHKQQFNKLITSQAVHVTTHSKNASHRVPRTTSAVKSNQEDVDKASSSNSACETGSVSALFQKIKGILPVKMESAECLEMTYVPNIDRISPEKKGEKENGTSMEKQELKQEIMNETFEYGSLFLGSASKTTTTSGRNISKPDSCGLRQIAAPKAKVGPPVSCLRRNSDNRNPSADRAVSPQRIRRVSSSGKPTSLKTAQSSWVNLPRPLPKSKASLKSPALRRTGSTPSIASTHSELSTYSNNSGNAAVIKYEEKPPKPAFQNGSSGSFYLKPLVSRAHVHLMKTPPKGPSRKNLFTALNA | mimic the inhibitory effects of the entire ATIP3a and ATIP3b proteins | co-sediments with stabilized microtubules | localizes at the microtubule cytoskeleton |  |  |
| D2N: domain of ATIP3BD, amino-acid positions 410-634 of SEQ ID NO: 1, expressed as GFP fusion (protein, listed as Homo sapiens, GFP fusion; (1)..(409) acidic N-terminal region) GLTWDANDMVISTDKTMCMSTPVLEPTKVTFSVSPIEATEKCKKVEKGNRGLKNIPDSKEAPVNLCKPSLGKSTIKTNTPIGCKVRKTEIISYPRPNFKNVKAKVMSRAVLQPKDAALSKVTPRPQQTSASSPSSVNSRQQTVLSRTPRSDLNADKKAEILINKTHKQQFNKLITSQAVHVTTHSKNASHRVPRTTSAVKSNQEDVDKASSSNSACETGSVSALF | strongly reduces the number of G418-resistant colonies |  |  | associate with the microtubule cytoskeleton | 71% |
| D2C: domain of ATIP3BD, amino-acid positions 705-874 of SEQ ID NO: 1, expressed as GFP fusion (protein, listed as Homo sapiens, GFP fusion; (1)..(409) acidic N-terminal region) TTSGRNISKPDSCGLRQIAAPKAKVGPPVSCLRRNSDNRNPSADRAVSPQRIRRVSSSGKPTSLKTAQSSWVNLPRPLPKSKASLKSPALRRTGSTPSIASTHSELSTYSNNSGNAAVIKYEEKPPKPAFQNGSSGSFYLKPLVSRAHVHLMKTPPKGPSRKNLFTALNA | strongly reduces the number of G418-resistant colonies |  |  | associate with the microtubule cytoskeleton | 78% |
